Reference: the DeepSol protein solubility set

Experiment: soluble on expression in E. coli; label from the status in PepcDB or PDB records
With “MAHHHHHHMQTNVLERIRALEADIERCIDSIVQQDLFAASIENERHRILLDHFTLQQVGIVRSTAEKLLDVYLDEDDIVQVQNAPAESPDNIAAAVKEFEAKIADIREYHHIYRDLPPVKDELAVPSPRLLDDIFTVHERYGACFDMDAHYNRYSAFMVHTKTLAEGCVSASAEVKKELAPLSPSSVLKWSSMWPGRLDFFSFTKALPQLLLHEVEAHRKIVGFALYKPFVAELLAYLEGFYRRIHPLKPAALERLMAEVESDAEKYWASLVEVKAEVTSVAATTAAASTEDEQADVQDVEDERVEEREAGGAAGSSSKGQTAAPVRIAVGNKVACGLAIPPSLRQHVKKFSLWPLPLIEKLIEDVGQASGTSDGAVASTSKLPTSVADVKMVCLMEAKAAALLQSFLYTTLETTNTSLLRDYSRTLEELENDREVAEQEFLDSLEEVRKNSADTMEGTVAHAAEYNLKLALEDSKGSRRGRHGKASAPAPVAAAPAAPELPLEEEEEQLIGENGEPIPRWLAQLHQLDKMFRCDVCGGTIYKGPKVFREHFGAERHAEGLRRLGVMHHLKSYEGITSIRQVVEMREQLTGGESGFRKRLRDNTDNEEIQDARGHVVTAKEYLRLQQRRR” the “soluble on expression in E. coli” value was “not soluble”.
With “MTAVRDPFFPADQSIRASHNPIEVRELGMMDYQRAWDLQAELNKQRQHDEINDVILVLEHPSIYTAGKRTQPSDRPQNGLPVIDVDRGGRITWHGPGQLVMYPIIKLAEPIDVVDYVRRVEEALIHVIRTHGIPNAGRIDGRSGVWVPGKTPEEHRKVAALGIRIAGGVTMHGLALNCDNTVEFYDYIVPCGISDAGVTTMSQEVGNDVTTQSMTAPLLAALDDAFAGRLVVADHSFASAPDPTKIPRRP” the “soluble on expression in E. coli” value was “not soluble”.
For “MKFFLLKKFSEFLNAQTHFSLKRLNASSFLLETFSKEKHAFVVDLSAPYIGLSKKPPESVLKNTLALDFCLNKFTRNAKILQANIIDNDRILEINGAKDLAYKSENFILRLEMIPKKANLMILDKEKCVIEAFRFNDRVAKNDILGALPPNIYEHQEEDLDFKGLLDILEKDFLFYQHKELEHKKNQIIKRLNAQKERLKEKLEKLEDPKNLQLEAKELQTQASLLLTYQHLIHKHESRVVLKDFEDKERAIEIDKSMPLNAFINKKFTLSKKKKQKSQFLYLEEENLKEKIAFKENQINYVKGAQEESVLEMFMPSKNSKIKRPMSGYEVLYYKDFKIGLGKNQKENIKLLQDARANDLWMHVRNIPGSHLIVFCQKNAPKDDVIMELAKMLIKMQKDAFNSYEIDYTQRKFVKIIKGANVIYSKYRTISLKDT”, the “soluble on expression in E. coli” value was “not soluble”.
With “SGCIQSITCKARIRRENIVVYDVCATIDQCPTRIEETSPIVLRYKTPYFKASARVVMPPIPRHETWVVGWIQACNQMEFFNTYSDLGMSSWELPDLREGRVKAISDSDGVSYPWYGNTTETVTLVGPTNKISRFSVSMNDNFYPSVTWAVPVSDSNVPLLTRIKRDQSFTTWLVAMNTTTKEKIILQTIKWRMRVDIEVDPLQLLGQRARLVGRTQQEQPRILSRMEPIPPNALVKPNANDAQVLMWRPKRGPPLVVIPPK” the “soluble on expression in E. coli” value was “soluble”.
In the case of “MGHHHHHHSHRIVILQGAAGIGKSTLARQVKEAWGRGQLYGDRFQHVFYFSCRELAQSKVVSLAELIGKDGTATPAPIRQILSRPERLLFILDGVDEPGWVLQEPSSELCLHWSQPQPADALLGSLLGKTILPEASFLITARTTALQNLIPSLEQARWVEVLGFSESSRKEYFYRYFT”, the “soluble on expression in E. coli” value was “not soluble”.
For “MGSDKIHHHHHHMIRKNHKPAFCDENPIDCHFDVKSYPAGTTVHNNDTNIIYLIFCMKGHARITSTFFHDEILCAGEVMFVPHGSEYSGVALSDVTLLVHKFNNTVCRAENCILSYLYSHKNIDSKIYCCQRRT”, the “soluble on expression in E. coli” value was “not soluble”.
For “MELDVFAGQEKSELSMIEVARAILETRGRDKEMYFNDLVNEIQNYLEKSDADIRSSLPFFYSDLNTDGSFIPLGDNKWGLRSWYAIDEIDEEVITLEDIDENAPKRKNKKVNAFMDGDEDAIDYNDDDPEDENFTPSSAILEYDNDNEDDENAEVESYDSELNEIIPDDDLDDVELSEEDDDDDDDYEDETND”, the “soluble on expression in E. coli” value was “not soluble”.
For “MGSDKIHHHHHHMDYRMCWLEYRGLPADVAGKLKDWFSSVSILEPGSSVLKDEIRRFSERSIGITPRFYSRPLKKEKYIMVGRLESLPIKLDVNLGEEGFMLRTIEWNGSKILLVTGETKKALVYGIFDLMKRIRLGEDIEKMNVLAKPKAKFRMLNHWDNLDGTIERGYAGNSIFFKDNRIIINQRTKDYARLLASIGINGVVINNVNVKKREVYLIDSIYLKKLKKLADIFREYGIKIYLSINFASPVYLGGLDTADPLDERVARWWREKARGIYDYIPDFGGFLVKADSEFNPGPHMFGRTHAEGANMLARALAPFGGVVIWRAFVYNCLQDWRDYKTDRAKAAYDNFKPLDGQFDDNVIIQIKYGPMDFQVREPVNPLFGGMEKTNQILELQITQEYTGQQIHLCFLGTLWKEILEFDTFAKGEGSYVKRIVDGTLFDRENNGFAGVSNVGDSVNWTGHDLAQANLYAFGRLAWNPDEEIERIVEEWIKLTFGDDEKVLENVSYMLMKSHRTYEKYTTPFGLGWMVNPGHHYGPNPEGYEYSKWGTYHRANWEAIGVDRTSRGTGYTLQYHSPWKEIYDDINTCPEDLLLFFHRVRYDHRLKSGKTLLQTMYDLHFEGVEEVEEFIKKWEELKDRVSPDIFERVKERLHMQLEHAKEWRDVINTYFYRRTGIPDEKGRKIYP”, the “soluble on expression in E. coli” value was “not soluble”.
With “MAFLSQLQGGFAQLKQKAEAAAPSIADSLNQLKEAPKFMESAFKTGLNKVKLDSLGKVLNVPSLGRTQSPIDIVPVITAFGEHLQNAHFEVTYESTGEFKAVNDGNSIWLMREGNSSELAISFLPEEQYHLDAVNFHWATEPMNGSEHTIGGVGYAGEMHLIHRNTRFATMADALKQPNGVIAIAVFLNESHDDNAVFSPLINLLPQVIYKGSECKLCSFDFQTFFPVAEKTKEFWMYEGSETTDPFRETVNWIVIRAALPISSHQLDKLREVRAGRYDEEFSDKVPMKPLRPIQNPSSRTIQSSFRSVAGAPDLGFRQ” the “soluble on expression in E. coli” value was “not soluble”.
In the case of “MRKQNRPNQTARKQMQNLTVELFARDKNARRQLLNVALTATPPPSVEPSSPTRPSEPIPPPLPEPIPELVQILLAAEPNKPSVPKRSNRKKLTYKQPPRNSTPQVPKVAVTLPVPEPVPEPVPEPVPESTPEPISEPLPVVQEEPASDSLTVQDEQIAQAEPAVEPEEPVVVEHVEVVTASEDPTLESSPPSEPPLLTTPTTPIEDPEPYVTPPPLQRVPYKAQLTHLANIRAVTESMNIAAIPAHHQQHQPQEPMSFAACVRKQPSIESMSVSPSPYAKFDGKTSPFNVGGFSNPGGFGGFSRLDPSKNVNPFANRKRFNYDYDSLPRDSQSSSRFMDRSDLSDGFSPFNSKPNGFTNRVIPRESASSGMLPSWYKGRSFSAASSHYPYSQRSTSTGHFSSFSRPSQSTSMNIPSHGHVEELDGFLAASGQTNPFFKRTDLNMKKERWAKIKAKKRMLRRPVEDQFYEDPDIEEEILHGNGVMLNQIVQQSSAGNYEDADLLRKYRRDVAFVKERVLNAIDGNIDGIRDLRFLLASVQTYGNIDGECMLAEMAMNEFSLFSGIVEKFHAIVGPWMPESESHRRRASRHALETHRIPLQNNFATITKKRLVEEILGRVEPSIACHQGVKVGLYSDACNEKTKIDLNIKNNFKDPGMLCDKNDRRFILVLQSELDLMVDSMKHLANNVGFHYDGFPVTPNCFVIVEAFVEAISDIMNEKIDVETMRWFSLLGQKVDAEDSVSPWETGTDFHCARHSEPKSNFCASVTVGRTCCIVYHVIGSFFRRYHLKKIPTAHQPSSSNSVQ”, the “soluble on expression in E. coli” value was “not soluble”.
In the case of “VQLLESGPGLVKPAQTLSLSCAVSGGSIRSGGYYWSWIRQHPGKGLEWIGYIYHSGNTYYNPSLKSRIAMSVDTSENKFSLRLNSVTAADTAVYYCARLDGYTLDIWGQGTLVTVSSSTKGPSVFPLAPSSKSTSGGTAALGCLVKDYFPEPVTVSWNSGALTSGVHTFPAVLQSSGLYSLSSVVTVPSSSLGTQTYICNVNHKPSNTKVDKRVEP”, the “soluble on expression in E. coli” value was “soluble”.
For “MGHHHHHHSHMTIEEFAAGPAQSGILVDREVVSLFLHFTVNPKPRVEFIDRPRCCLRGKECSINRFQQVESRWGYSGTSDRIRFSVNKRIFVVGFGLYGSIHGPTDYQVNIQIIHTDSNTVLGQNDTGFSCDGSASTFRVMFKEPVEVLPNVNYTACATLKGPDSHYGTKGLRKVTHESPTTGAKTCFTFCYAAGNNNGTSVEDGQIPEVIFYT”, the “soluble on expression in E. coli” value was “not soluble”.
